Measurements from the supplement of paper PMC9112550, “Optimization of the antimicrobial peptide Bac7 by deep mutational scanning” (BMC Biology, 2022).

Tested on: Escherichia coli TOP10
Experiment: shrunken log2 fold change of peptide-encoding DNA abundance (4.5 h post-induction vs induction); higher = less antimicrobial activity (less host growth inhibition)
Conditions: time post-induction: 4.5 h; library: site-saturation at positions 5, 18, 19, 20
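Also: peptides expressed intracellularly from a pBAD plasmid library in pooled LB shake-flask culture, induced with 0.3% L-arabinose, DNA abundance read by NGS, three biological replicates, DESeq2 with apeglm shrinkage.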

Sequence | shrunken log2 fold change
RRIRKRPPRLPRPRPRPFHTPRP | -0.0289
RRIRKRPPRLPRPRPRPFLMPRP | 0.043
RRIRKRPPRLPRPRPRPFMPPRP | -0.0694
RRIRKRPPRLPRPRPRPFNWPRP | 0.00115
RRIRKRPPRLPRPRPRPFPDPRP | -0.112
RRIRKRPPRLPRPRPRPFPEPRP | 0.273
RRIRKRPPRLPRPRPRPFPLPRP | 0.289
RRIRKRPPRLPRPRPRPFPVPRP | -0.288
RRIRKRPPRLPRPRPRPFQEPRP | 0.149
RRIRKRPPRLPRPRPRPFQQPRP | 0.202
RRIRKRPPRLPRPRPRPFSGPRP | -0.172
RRIRKRPPRLPRPRPRPFSSPRP | -0.219
RRIRKRPPRLPRPRPRPFTVPRP | -0.00947
RRIRKRPPRLPRPRPRPFVAPRP | 0.115
RRIRKRPPRLPRPRPRPFVDPRP | -0.0489
RRIRKRPPRLPRPRPRPFYFPRP | 0.00515
RRIRKRPPRLPRPRPRPFYNPRP | -0.695
RRIRKRPPRLPRPRPRPGEIPRP | 0.0945
RRIRKRPPRLPRPRPRPGEPPRP | 0.305
RRIRKRPPRLPRPRPRPGFHPRP | 0.206
RRIRKRPPRLPRPRPRPGGLPRP | 0.0184
RRIRKRPPRLPRPRPRPGHFPRP | 0.0417
RRIRKRPPRLPRPRPRPGHKPRP | 0.193
RRIRKRPPRLPRPRPRPGHRPRP | 0.118
RRIRKRPPRLPRPRPRPGKWPRP | 0.184

Sequence | shrunken log2 fold change
RRIRKRPPRLPRPRPRPGLQPRP | -0.00225
RRIRKRPPRLPRPRPRPGNAPRP | 0.418
RRIRKRPPRLPRPRPRPGNLPRP | 0.0368
RRIRKRPPRLPRPRPRPGPRPRP | 1.08
RRIRKRPPRLPRPRPRPGQDPRP | 0.37
RRIRKRPPRLPRPRPRPGSAPRP | 0.843
RRIRKRPPRLPRPRPRPGSGPRP | 0.708
RRIRKRPPRLPRPRPRPGWMPRP | 0.269
RRIRKRPPRLPRPRPRPGWPPRP | 0.424
RRIRKRPPRLPRPRPRPGYEPRP | -0.0888
RRIRKRPPRLPRPRPRPGYMPRP | -0.144
RRIRKRPPRLPRPRPRPGYYPRP | -0.0439
RRIRKRPPRLPRPRPRPHDRPRP | 0.29
RRIRKRPPRLPRPRPRPHESPRP | 0.23
RRIRKRPPRLPRPRPRPHEYPRP | -0.091
RRIRKRPPRLPRPRPRPHFFPRP | 0.101
RRIRKRPPRLPRPRPRPHFPPRP | 0.179
RRIRKRPPRLPRPRPRPHFVPRP | 0.347
RRIRKRPPRLPRPRPRPHGLPRP | 0.0425
RRIRKRPPRLPRPRPRPHGMPRP | -0.00215
RRIRKRPPRLPRPRPRPHGYPRP | 0.0773
RRIRKRPPRLPRPRPRPHIFPRP | -0.0478
RRIRKRPPRLPRPRPRPHIPPRP | -0.247
RRIRKRPPRLPRPRPRPHKSPRP | 0.0371
RRIRKRPPRLPRPRPRPHKVPRP | -0.033

Sequence | shrunken log2 fold change
RRIRKRPPRLPRPRPRPHLIPRP | 0.108
RRIRKRPPRLPRPRPRPHLQPRP | 0.224
RRIRKRPPRLPRPRPRPHLSPRP | 0.0468
RRIRKRPPRLPRPRPRPHQHPRP | 0.213
RRIRKRPPRLPRPRPRPHQMPRP | 0.0681
RRIRKRPPRLPRPRPRPHRQPRP | 0.277
RRIRKRPPRLPRPRPRPHRSPRP | 0.0882
RRIRKRPPRLPRPRPRPHSIPRP | 0.124
RRIRKRPPRLPRPRPRPHTYPRP | -0.101
RRIRKRPPRLPRPRPRPHWDPRP | 0.0835
RRIRKRPPRLPRPRPRPHYGPRP | -0.0816
RRIRKRPPRLPRPRPRPIAFPRP | -0.0784
RRIRKRPPRLPRPRPRPICEPRP | 0.115
RRIRKRPPRLPRPRPRPIDCPRP | 0.0653
RRIRKRPPRLPRPRPRPIECPRP | -0.0298
RRIRKRPPRLPRPRPRPIFKPRP | 0.307
RRIRKRPPRLPRPRPRPIGQPRP | 0.0684
RRIRKRPPRLPRPRPRPIGYPRP | -0.0204
RRIRKRPPRLPRPRPRPIHNPRP | -0.0348
RRIRKRPPRLPRPRPRPIINPRP | 0.172
RRIRKRPPRLPRPRPRPILIPRP | 0.0193
RRIRKRPPRLPRPRPRPILMPRP | 0.0297
RRIRKRPPRLPRPRPRPILYPRP | -0.505
RRIRKRPPRLPRPRPRPIMTPRP | -0.111
RRIRKRPPRLPRPRPRPIPMPRP | 0.0472

Sequence | shrunken log2 fold change
RRIRKRPPRLPRPRPRPIQDPRP | -0.106
RRIRKRPPRLPRPRPRPIQNPRP | 0.151
RRIRKRPPRLPRPRPRPISIPRP | 0.0294
RRIRKRPPRLPRPRPRPISKPRP | -0.357
RRIRKRPPRLPRPRPRPITHPRP | -0.0971
RRIRKRPPRLPRPRPRPIVHPRP | -0.42
RRIRKRPPRLPRPRPRPIWAPRP | -0.0352
RRIRKRPPRLPRPRPRPIYRPRP | -0.0881
RRIRKRPPRLPRPRPRPKAKPRP | 0.0663
RRIRKRPPRLPRPRPRPKANPRP | 0.768
RRIRKRPPRLPRPRPRPKDDPRP | 0.0898
RRIRKRPPRLPRPRPRPKDFPRP | -0.0746
RRIRKRPPRLPRPRPRPKDMPRP | 0.139
RRIRKRPPRLPRPRPRPKDQPRP | 0.619
RRIRKRPPRLPRPRPRPKDRPRP | 0.088
RRIRKRPPRLPRPRPRPKDWPRP | 0.742
RRIRKRPPRLPRPRPRPKEKPRP | 0.0508
RRIRKRPPRLPRPRPRPKGLPRP | -0.00973
RRIRKRPPRLPRPRPRPKGRPRP | 0.262
RRIRKRPPRLPRPRPRPKIPPRP | 0.174
RRIRKRPPRLPRPRPRPKKDPRP | 0.337
RRIRKRPPRLPRPRPRPKKVPRP | -0.0126
RRIRKRPPRLPRPRPRPKNKPRP | 0.287
RRIRKRPPRLPRPRPRPKNYPRP | 0.0189
RRIRKRPPRLPRPRPRPKPNPRP | 0.516

Sequence | shrunken log2 fold change
RRIRKRPPRLPRPRPRPKQMPRP | 0.471
RRIRKRPPRLPRPRPRPKRGPRP | 0.781
RRIRKRPPRLPRPRPRPKSKPRP | 0.45
RRIRKRPPRLPRPRPRPKSQPRP | 0.109
RRIRKRPPRLPRPRPRPKSTPRP | 0.0348
RRIRKRPPRLPRPRPRPKVFPRP | -0.0531
RRIRKRPPRLPRPRPRPKWAPRP | 0.0446
RRIRKRPPRLPRPRPRPKWLPRP | -0.0433
RRIRKRPPRLPRPRPRPLAKPRP | 0.614
RRIRKRPPRLPRPRPRPLCFPRP | 0.188
RRIRKRPPRLPRPRPRPLDFPRP | 0.188
RRIRKRPPRLPRPRPRPLDLPRP | -0.203
RRIRKRPPRLPRPRPRPLFDPRP | -0.0965
RRIRKRPPRLPRPRPRPLFNPRP | 0.0323
RRIRKRPPRLPRPRPRPLGLPRP | 0.159
RRIRKRPPRLPRPRPRPLKYPRP | 0.072
RRIRKRPPRLPRPRPRPLLAPRP | 0.833
RRIRKRPPRLPRPRPRPLLFPRP | 0.176
RRIRKRPPRLPRPRPRPLLSPRP | 0.523
RRIRKRPPRLPRPRPRPLMAPRP | 0.635
RRIRKRPPRLPRPRPRPLMDPRP | 0.16
RRIRKRPPRLPRPRPRPLMIPRP | -0.171
RRIRKRPPRLPRPRPRPLNNPRP | -0.0972
RRIRKRPPRLPRPRPRPLPKPRP | 0.54
RRIRKRPPRLPRPRPRPLQGPRP | 0.154

Sequence | shrunken log2 fold change
RRIRKRPPRLPRPRPRPLRRPRP | 0.689
RRIRKRPPRLPRPRPRPLVEPRP | 0.734
RRIRKRPPRLPRPRPRPLVLPRP | -0.0684
RRIRKRPPRLPRPRPRPLVVPRP | -0.0832
RRIRKRPPRLPRPRPRPMAEPRP | 0.208
RRIRKRPPRLPRPRPRPMCGPRP | 0.0595
RRIRKRPPRLPRPRPRPMDTPRP | 0.336
RRIRKRPPRLPRPRPRPMFEPRP | 0.312
RRIRKRPPRLPRPRPRPMGDPRP | 0.153
RRIRKRPPRLPRPRPRPMGNPRP | 0.111
RRIRKRPPRLPRPRPRPMGRPRP | -0.0264
RRIRKRPPRLPRPRPRPMHAPRP | 0.00395
RRIRKRPPRLPRPRPRPMHKPRP | 0.351
RRIRKRPPRLPRPRPRPMKAPRP | -0.00163
RRIRKRPPRLPRPRPRPMKKPRP | 0.172
RRIRKRPPRLPRPRPRPMKTPRP | 0.0431
RRIRKRPPRLPRPRPRPMMGPRP | -0.0567
RRIRKRPPRLPRPRPRPMNAPRP | 0.228
RRIRKRPPRLPRPRPRPMNLPRP | -0.223
RRIRKRPPRLPRPRPRPMPIPRP | 0.0778
RRIRKRPPRLPRPRPRPMQDPRP | -0.0916
RRIRKRPPRLPRPRPRPMQIPRP | -0.0337
RRIRKRPPRLPRPRPRPMQKPRP | -0.00412
RRIRKRPPRLPRPRPRPMQQPRP | -0.000844
RRIRKRPPRLPRPRPRPMQRPRP | 0.744
